Assays:
[1] = FTC concentrations in rat tissues by LC-MS/MS; format: in vivo, Sprague Dawley rats; details: for concentration at 4 h: male, Sprague Dawley, rat, iv
human PBMCs = details: 24 h incubation at 10 ug/mL FTC, normalized to soluble protein
[2] = rat axillary lymph nodes, 4 h post dose
[3] = Plasma pharmacokinetics of PLS-FTC vs FTC in rats
[4] = system: wild-type RAW 264.7 cells; test: Flow cytometry of PLS-488 uptake, wild-type RAW 264.7 cells; format: cell-based, murine; details: wild-type RAW 264.7, 24 h incubation
[5] = system: SR-A1 deficient RAW 264.7 derivative cell line (Clone 1/2); test: Flow cytometry of PLS-488 uptake, SR-A1 deficient Clone 1/2; format: cell-based, murine; details: SR-A1 deficient Clone 1/2, 24 h incubation
[6] = system: wild type Raw 264.7 cells; test: Confocal microscopy of PLS-488 uptake, wild type RAW 264.7 cells; format: cell-based, murine
[7] = system: SR-A1 knockout Raw 264.7 cells (clone 1/2); test: Confocal microscopy of PLS-488 uptake, SR-A1 deficient RAW cells; format: cell-based, murine; details: SR-A1 deficient RAW cell line
[8] = Lymph node distribution of PLS-488 in mice, anti-Alexa488 immunohistochemistry; format: in vivo, C57BL/6 mice; details: 6 h and 24 h
[9] = In vitro drug release in human plasma with or without esterase inhibitor PMSF; details: PMSF-treated vs untreated human plasma
[10] = target: T1, scavenger receptor A (SR-A) (Mus musculus, UniProt P30204); test: Scavenger receptor A competitive inhibition studies in RAW 264.7 cells; format: cell-based, murine; details: RAW 264.7, 3 h co-treatment, 200 μg/mL poly I or poly C, PLS-488 4.22 ng/mL to […] (Figure 2A)
T1 sequence (P30204 1-458): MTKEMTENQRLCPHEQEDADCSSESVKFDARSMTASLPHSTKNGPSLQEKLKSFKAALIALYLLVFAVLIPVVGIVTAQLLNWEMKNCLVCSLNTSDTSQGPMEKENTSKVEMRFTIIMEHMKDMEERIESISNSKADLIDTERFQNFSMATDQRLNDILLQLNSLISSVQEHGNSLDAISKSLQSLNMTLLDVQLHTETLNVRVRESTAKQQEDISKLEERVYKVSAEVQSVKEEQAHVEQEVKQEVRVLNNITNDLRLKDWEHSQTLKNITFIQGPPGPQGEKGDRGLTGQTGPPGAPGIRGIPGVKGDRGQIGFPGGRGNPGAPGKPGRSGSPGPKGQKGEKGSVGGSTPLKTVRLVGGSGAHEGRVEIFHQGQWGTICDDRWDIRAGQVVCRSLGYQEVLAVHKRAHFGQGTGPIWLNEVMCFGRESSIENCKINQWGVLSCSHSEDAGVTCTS

[11] = male, Sprague Dawley, rat, plasma, iv, 10 mg/kg
[12] = rats, 4 h post i.v. injection, 10 mg FTC equivalents/kg, mean ± SD, n=3
[13] = FTC in plasma, rats, i.v. bolus 10 mg FTC equivalents/kg, mean ± SD (n=8)
[14] = rats, i.v. bolus 10 mg FTC equivalents/kg

Nc1nc(=O)n([C@@H]2CS[C@H](CO)O2)cc1F [FTC, Emtricitabine, reference compound]
concentration at 4 h ([1]; axillary lymph node, 10 mg FTC equivalents/kg): 109 ± 37 ng/g
concentration at 4 h ([1]; inguinal lymph node, 10 mg FTC equivalents/kg): 87 ± 51 ng/g
concentration at 4 h ([1]; liver, 10 mg FTC equivalents/kg): 119 ± 51 ng/g
concentration at 4 h ([1]; popliteal lymph node, 10 mg FTC equivalents/kg): 105 ± 64 ng/g
concentration at 4 h ([1]; spleen, 10 mg FTC equivalents/kg): 106 ± 44 ng/g
FTC concentration in PBMCs (human PBMCs): 182 ± 18 ng/mg protein
FTC signal abundance (IR-MALDESI MSI) [2]: 18.5 ± 16.6 arbitrary units
frequency of detection [2]: 2.9 ± 2.8 % of sampling locations with measurable drug
AUC [3, 11]: 6400 ± 1010 ng·h/mL
C0 [3, 11]: 10600 ± 2950 ng/mL
Cmax [3, 11]: 5850 ± 853 ng/mL
MRT [3, 11]: 1.8 ± 0.32 h
Vd [3, 11]: 2.94 ± 1.09 L/kg
clearance [3, 11]: 26.7 mL/min/kg
half-life [3, 11]: 14.1 ± 5.17 h

AlexaFluor488-labelled poly(L-lysine succinylated) [PLS-488]
uptake of PLS-488 by flow cytometry [4]: uniform uptake
uptake of PLS-488 by flow cytometry [5]: no uptake
PLS-488 uptake by confocal microscopy ([6]; wild type Raw 264.7, 1 μg/mL, 0.5 h): uptake was observed at the earliest 0.5 h time point
PLS-488 fluorescence signal after 24 h treatment ([6]; wild type vs SR-A1 deficient Raw cells, 1 μg/mL, 24 h): markedly greater in the wild type Raw 264.7 cells than the SR-A1 deficient Raw cells
PLS-488 uptake by confocal microscopy [7]: greatly reduced PLS-488 uptake
accumulation in lymph nodes (IHC) ([8]; intradermal injection into foot pads): robust accumulation of PLS-488 in regions of the draining (popliteal) and peripheral (axillary and inguinal) lymph nodes
accumulation in lymph nodes (IHC) ([8]; intravenous tail vein injection): early accumulation of PLS-488 into myeloid-rich regions of the deep mesenteric lymph nodes by 6 h, with later accumulation in peripheral lymph nodes

poly(L-lysine succinylated) FTC prodrug [PLS-FTC]
FTC concentration in axillary lymph node [1, 12]: 811 ± 65 ng/g
FTC concentration in inguinal lymph node [1, 12]: 587 ± 56 ng/g
FTC concentration in liver [1, 12]: 2,257 ± 143 ng/g
FTC concentration in mesenteric lymph node [1, 12]: 850 ± 540 ng/g
FTC concentration in popliteal lymph node [1, 12]: 864 ± 330 ng/g
FTC concentration in spleen [1, 12]: 1,788 ± 164 ng/g
fold higher concentrations in lymphatic tissues compared to free FTC control ([1]; rats, 4 h post injection, lymph nodes, liver, spleen): 7 to 19 fold
FTC concentration in LN inguinal at 24 h ([1]; rats, 24 h after i.v. bolus): below limit of quantitation
prolongation of release half-life in PMSF-treated plasma [9]: ~ 2 fold
AUCall [3, 13]: 11100 ± 3281 ^* h*ng/mL
C0 [3, 13]: 4901 ± 3621 ng/mL
Cl [3, 13]: 17.55 ± 10.3 mL/min/kg
Cmax [3, 13]: 3839 ± 1734 ng/mL
MRT [3, 13]: 3.64 ± 0.47 h
T1/2 [3, 13]: 6.99 ± 2.62 h
Vss [3, 13]: 3.816 ± 2.254 L/kg
fold higher area under the concentration-time curve vs FTC control [3, 14]: 2 fold
fold higher mean residence time vs FTC control [3, 14]: 2 fold
fold lower concentration time zero vs FTC control [3, 14]: 2 fold
fold lower half-life vs FTC control [3, 14]: 2 fold

poly(cytidylic acid) potassium salt [poly C]
inhibition of PLS-488 binding to macrophages [10]: not with the control polymer poly C

Reference: article PMC7861197 (Molecular pharmaceutics, 2020)
